Reference: article PMC9204724 (iScience, 2022)
Where two headings read alike, the source gives them in different places. Each block holds one compound with its values, some of them ahead of it.

What was measured:
[1] = biological target: T1, acto-Myo1C^0-ΔTH1 (no Tpm) (Homo sapiens, UniProt O00159); type: binding
[2] = biological target: T1, acto-Myo1C^0-ΔTH1 (no Tpm); assay: stopped-flow, pyrene-actin fluorescence, K0.[…] of fast phase vs [ATP]; type: binding
[3] = biological target: chicken skeletal muscle α-actin, filamentous (chicken) (UniProt P68139); assay: stopped-flow kinetics
[4] = biological target: α-actin–Tpm1.7 cofilament (chicken | human) (UniProt P68139); assay: stopped-flow kinetics
[5] = biological target: α-actin–Tpm3.1 cofilament (chicken | human) (UniProt P68139); assay: stopped-flow kinetics
[6] = biological target: β-actin–AcTpm1.6 cofilament (human) (UniProt P60709)
[7] = biological target: β-actin–AcTpm2.1 cofilament (human) (UniProt P60709)
[8] = biological target: β-actin–AcTpm3.1 cofilament (human) (UniProt P60709)
[9] = biological target: β-actin–AcTpm4.2 cofilament (human) (UniProt P60709)
[10] = biological target: β-actin–Tpm1.6 cofilament (human) (UniProt P60709)
[11] = biological target: β-actin–Tpm2.1 cofilament (human) (UniProt P60709)
[12] = biological target: β-actin–Tpm3.1 cofilament (human) (UniProt P60709)
[13] = biological target: β-actin–Tpm4.2 cofilament (human) (UniProt P60709)
[14] = biological target: human β-actin, filamentous (human) (UniProt P60709)

T1 sequence (O00159 36-891, stated change not applied): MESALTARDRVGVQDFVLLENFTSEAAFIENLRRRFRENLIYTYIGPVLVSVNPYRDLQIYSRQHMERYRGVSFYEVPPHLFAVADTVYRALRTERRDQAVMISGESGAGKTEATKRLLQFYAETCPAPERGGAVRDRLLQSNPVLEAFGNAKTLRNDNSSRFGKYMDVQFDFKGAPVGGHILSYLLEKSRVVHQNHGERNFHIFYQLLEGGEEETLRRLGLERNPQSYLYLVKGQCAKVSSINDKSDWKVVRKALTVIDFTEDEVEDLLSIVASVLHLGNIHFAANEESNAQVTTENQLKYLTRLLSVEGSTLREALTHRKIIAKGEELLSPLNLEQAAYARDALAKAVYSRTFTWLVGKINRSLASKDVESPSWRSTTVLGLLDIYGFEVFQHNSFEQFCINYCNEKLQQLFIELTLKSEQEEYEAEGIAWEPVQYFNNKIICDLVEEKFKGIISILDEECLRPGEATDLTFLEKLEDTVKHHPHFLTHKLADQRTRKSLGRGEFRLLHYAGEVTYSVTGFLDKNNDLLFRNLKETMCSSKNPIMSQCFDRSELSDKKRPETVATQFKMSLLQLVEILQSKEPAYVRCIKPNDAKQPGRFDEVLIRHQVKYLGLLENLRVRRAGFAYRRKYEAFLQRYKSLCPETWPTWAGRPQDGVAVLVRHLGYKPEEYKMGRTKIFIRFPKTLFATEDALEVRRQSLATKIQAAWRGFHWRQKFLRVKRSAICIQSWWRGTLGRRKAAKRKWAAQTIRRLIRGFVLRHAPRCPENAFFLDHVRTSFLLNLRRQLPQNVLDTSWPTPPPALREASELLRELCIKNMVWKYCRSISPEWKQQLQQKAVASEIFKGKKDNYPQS

Kd [1]: 460 ± 80 nM
Compound: Nc1ncnc2c1ncn2[C@@H]1O[C@H](COP(=O)(O)OP(=O)(O)O)[C@@H](O)[C@H]1O [ADP]

Kd [2]: 154 ± 31 µM
Compound: Nc1ncnc2c1ncn2[C@@H]1O[C@H](COP(=O)(O)OP(=O)(O)OP(=O)(O)O)[C@@H](O)[C@H]1O [ATP]

Kd [3]: 13.7 nM
kon [3]: 1.46e+06 M⁻¹ s⁻¹
Kd [4]: 19.6 nM
kon [4]: 1.33e+06 M⁻¹ s⁻¹
Kd [5]: 18.4 nM
kon [5]: 1.36e+06 M⁻¹ s⁻¹
Compound: human Myo1C^0-ΔTH1, tail truncated myosin-1C isoform C^0, co-produced with calmodulin (from UniProt P0DP23 1-149) (complex)

Kapp of the actin-activated steady-state ATPase (Michaelis–Menten fit, 30 °C) [6]: 17.7 µM
kcat/Kapp of the actin-activated steady-state ATPase (30 °C) [6]: 0.0174 µM⁻¹ s⁻¹
Kapp of the actin-activated steady-state ATPase (Michaelis–Menten fit, 30 °C) [7]: 40.9 µM
Kapp of the actin-activated steady-state ATPase (Michaelis–Menten fit, 30 °C) [8]: 26.6 µM
Kapp of the actin-activated steady-state ATPase (Michaelis–Menten fit, 30 °C) [9]: 26.1 µM
kcat/Kapp of the actin-activated steady-state ATPase (30 °C) [9]: 0.0234 µM⁻¹ s⁻¹
Kapp of the actin-activated steady-state ATPase (Michaelis–Menten fit, 30 °C) [10]: 27.8 µM
kcat/Kapp of the actin-activated steady-state ATPase (30 °C) [10]: 0.0124 µM⁻¹ s⁻¹
Kapp of the actin-activated steady-state ATPase (Michaelis–Menten fit, 30 °C) [11]: 37.8 µM
kcat/Kapp of the actin-activated steady-state ATPase (30 °C) [11]: 0.0102 µM⁻¹ s⁻¹
Kapp of the actin-activated steady-state ATPase (Michaelis–Menten fit, 30 °C) [12]: 19.6 µM
kcat/Kapp of the actin-activated steady-state ATPase (30 °C) [12]: 0.0291 µM⁻¹ s⁻¹
Kapp of the actin-activated steady-state ATPase (Michaelis–Menten fit, 30 °C) [13]: 26.2 µM
kcat/Kapp of the actin-activated steady-state ATPase (30 °C) [13]: 0.0112 µM⁻¹ s⁻¹
Compound: human non-muscle myosin-2A heavy meromyosin (NM-2A-HMM) with essential and regulatory light chains, phosphorylated (from UniProt P35579-1;P60660-1;O14950) (complex)

Tdiss [14]: 41.6 °C
Compound: human tropomyosin Tpm1.8, non-acetylated (natural protein)
